Data taken from the supplement of paper PMC12042874.
± gives the uncertainty stated by the source.

Experiment: amyloid nucleation score (Sup35N fusion, yeast selection) (log enrichment); library NNK1; higher = more nucleation; inactive = no reads after selection
Method in brief: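 Sup35N fusions to peptides of 20 random codons were expressed in psi-negative yeast, induced 24 hours with 100 μM copper sulfate, and grown 7 days at 30°C on medium lacking adenine and uracil. Input and output plasmid inserts were sequenced by Illumina. The nucleation score is the DiMSum log enrichment of output over input reads, centred on the mode score of non-aggregating sequences. Sequences with under 100 input reads were excluded.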

**Q.** Which amyloid nucleation score does the source give for IVRSAVRLELSGLPRCQGIS here?
**A.** -0.065 ± 0.95

**Q.** For PFWAGG, which amyloid nucleation score is on record?
**A.** inactive

**Q.** Which amyloid nucleation score does the source give for YAYMVLVVPRDSVLEESECR here?
**A.** -0.087 ± 0.78

**Q.** For KCYGVETTYALA, which amyloid nucleation score is on record?
**A.** 0.875 ± 0.97

**Q.** For LNASGIVVCFYSSDNTCTYE, which amyloid nucleation score is on record?
**A.** 4.49 ± 0.089

**Q.** With MCGDIPQ as the substance, how does the amyloid nucleation score read?
**A.** 0.35 ± 0.74

**Q.** For RSQVSSFTYSPSRATPKRRL, which amyloid nucleation score is on record?
**A.** 0.508 ± 0.5

**Q.** With VQFLIKPDLMTG as the substance, how does the amyloid nucleation score read?
**A.** inactive

**Q.** With SRDRNLVGLKLHVTVNKDVF as the substance, how does the amyloid nucleation score read?
**A.** -1.41 ± 2.4

**Q.** With CHTTKNYVYCVCMQFVTHQ as the substance, how does the amyloid nucleation score read?
**A.** 6.725 ± 0.045

**Q.** Which amyloid nucleation score does the source give for TLTSPWDSYKRFCKNSPLFN here?
**A.** 0.353 ± 1.4

**Q.** With YVNFLGLLDCEL as the substance, how does the amyloid nucleation score read?
**A.** -0.028 ± 0.48

**Q.** Which amyloid nucleation score does the source give for TGKDLRAEHENFVARNHFPM here?
**A.** -0.954 ± 1.4

**Q.** For RFGTY, which amyloid nucleation score is on record?
**A.** -0.067 ± 0.94

**Q.** With QDFNNEFFFSCRAAAKTTNA as the substance, how does the amyloid nucleation score read?
**A.** -1.54 ± 1.7

**Q.** With YKAKGRNAVS as the substance, how does the amyloid nucleation score read?
**A.** -0.689 ± 1.6

**Q.** With LLLNTLLWSL as the substance, how does the amyloid nucleation score read?
**A.** -1.83 ± 2.7

**Q.** With QNKVCNCDRVFTRFIESNSL as the substance, how does the amyloid nucleation score read?
**A.** -0.254 ± 0.38

**Q.** With PPQLHRVEFLIVSGR as the substance, how does the amyloid nucleation score read?
**A.** -0.859 ± 1.4

**Q.** With DLSWSGTFSAGHGNMNFTKS as the substance, how does the amyloid nucleation score read?
**A.** 2.53 ± 0.15

**Q.** Which amyloid nucleation score does the source give for FCELELMVHVVMPFKAVS here?
**A.** 0.831 ± 0.77

**Q.** Which amyloid nucleation score does the source give for VSNFLSYNRWAHHGLFNSSF here?
**A.** 0.553 ± 0.53

**Q.** Which amyloid nucleation score does the source give for GNRGSSKV here?
**A.** inactive

**Q.** With RYNAILAWCSLRKTGVYFLV as the substance, how does the amyloid nucleation score read?
**A.** 1.09 ± 1

**Q.** With EVCCNVKTL as the substance, how does the amyloid nucleation score read?
**A.** 0.431 ± 0.28

**Q.** With RNSMQILASLNNMDQRPLWR as the substance, how does the amyloid nucleation score read?
**A.** 1.51 ± 0.51

**Q.** For NRLKFSLV, which amyloid nucleation score is on record?
**A.** -2.62 ± 2.7

**Q.** Which amyloid nucleation score does the source give for VFLSADDVSGPRVDAVSGYS here?
**A.** 0.713 ± 0.5

**Q.** For MLLALVIEADRRRWSVNGMY, which amyloid nucleation score is on record?
**A.** 2.93 ± 0.18

**Q.** With IGKSCFIFVTG as the substance, how does the amyloid nucleation score read?
**A.** 0.56 ± 0.43

**Q.** For YFSHTSWLYFSTPFIVVVRV, which amyloid nucleation score is on record?
**A.** 0.25 ± 0.97

**Q.** For CFSISVTAYHSKSAT, which amyloid nucleation score is on record?
**A.** 4.14 ± 0.099

**Q.** For NYMSMWTV, which amyloid nucleation score is on record?
**A.** 0.324 ± 0.9

**Q.** With VGLFVFSMSLGLAD as the substance, how does the amyloid nucleation score read?
**A.** -1.55 ± 0.51

**Q.** With GRMLLM as the substance, how does the amyloid nucleation score read?
**A.** -1.25 ± 1.1

**Q.** For YIIVFDVNWFVKFGCFPRGS, which amyloid nucleation score is on record?
**A.** inactive

**Q.** For YVCIGFYSSPVLGIDFLGNK, which amyloid nucleation score is on record?
**A.** 3.53 ± 0.11

**Q.** With PQVKTFGVVFVGGMCE as the substance, how does the amyloid nucleation score read?
**A.** 0.216 ± 0.41

**Q.** Which amyloid nucleation score does the source give for YTINPRKIRGTPPPIPCRVQ here?
**A.** 0.16 ± 0.73

**Q.** Which amyloid nucleation score does the source give for ISGLNV here?
**A.** -0.372 ± 0.51

**Q.** With QVNVN as the substance, how does the amyloid nucleation score read?
**A.** 0.19 ± 0.5

**Q.** With TLTDSN as the substance, how does the amyloid nucleation score read?
**A.** -0.221 ± 0.53

**Q.** With WDAGVFWKMYLSTCRTSI as the substance, how does the amyloid nucleation score read?
**A.** 0.949 ± 0.54

**Q.** With ILLRLGDVVRIGLVFVTSFG as the substance, how does the amyloid nucleation score read?
**A.** 0.421 ± 0.61

**Q.** With MSRIVF as the substance, how does the amyloid nucleation score read?
**A.** -0.003 ± 0.71

**Q.** For RGYQTSGLT, which amyloid nucleation score is on record?
**A.** -0.756 ± 2.4

**Q.** For ERLHMLLAKCIHVGETRHLN, which amyloid nucleation score is on record?
**A.** 0.194 ± 0.66

**Q.** For PMSKV, which amyloid nucleation score is on record?
**A.** inactive

**Q.** With VKYGDSRLADAWNFVSNK as the substance, how does the amyloid nucleation score read?
**A.** -0.476 ± 0.3

**Q.** With MHPAVVYCPLIK as the substance, how does the amyloid nucleation score read?
**A.** 0.735 ± 0.64

**Q.** With EAFRLCGLVRACVAFCG as the substance, how does the amyloid nucleation score read?
**A.** 0.116 ± 0.3

**Q.** With RYIPARGVNGGYSVVVRHLG as the substance, how does the amyloid nucleation score read?
**A.** -0.436 ± 0.38

**Q.** With VLVSSCSTGDLVSSDPHSSV as the substance, how does the amyloid nucleation score read?
**A.** inactive

**Q.** With LNNLWNLGLTGLQGGNMYKI as the substance, how does the amyloid nucleation score read?
**A.** inactive

**Q.** Which amyloid nucleation score does the source give for NLSALLHDHFMGPIDLKFLT here?
**A.** 1.8 ± 0.52

**Q.** For RWFYSCDVVAFKGH, which amyloid nucleation score is on record?
**A.** 0.584 ± 0.84

**Q.** Which amyloid nucleation score does the source give for GGDGVKVVIGLHGWFASGYL here?
**A.** 1.24 ± 0.3

**Q.** Which amyloid nucleation score does the source give for ICITYL here?
**A.** 2.56 ± 0.12

**Q.** For WSVSASQFRSVPRSPFALSQ, which amyloid nucleation score is on record?
**A.** -0.303 ± 0.26

**Q.** Which amyloid nucleation score does the source give for MFRRFSWGR here?
**A.** -0.198 ± 0.44

**Q.** With GSSKWISSHRVIDDFSYKRG as the substance, how does the amyloid nucleation score read?
**A.** 0.406 ± 0.49

**Q.** For NISPISYKIVVTIYSYFWLS, which amyloid nucleation score is on record?
**A.** 0.452 ± 0.4

**Q.** Which amyloid nucleation score does the source give for LFETI here?
**A.** 0.746 ± 0.71

**Q.** With RNCNWDYEVNIKWRVRVEFL as the substance, how does the amyloid nucleation score read?
**A.** inactive
